The record followed here is patent publication US20040223972A1 (FUNCTIONAL GENETICS, published 2004).

The assay addresses T1, Ebola VP40 (1-326) (Ebola virus (EBOV), UniProt Q05128 1-326).
T1 sequence: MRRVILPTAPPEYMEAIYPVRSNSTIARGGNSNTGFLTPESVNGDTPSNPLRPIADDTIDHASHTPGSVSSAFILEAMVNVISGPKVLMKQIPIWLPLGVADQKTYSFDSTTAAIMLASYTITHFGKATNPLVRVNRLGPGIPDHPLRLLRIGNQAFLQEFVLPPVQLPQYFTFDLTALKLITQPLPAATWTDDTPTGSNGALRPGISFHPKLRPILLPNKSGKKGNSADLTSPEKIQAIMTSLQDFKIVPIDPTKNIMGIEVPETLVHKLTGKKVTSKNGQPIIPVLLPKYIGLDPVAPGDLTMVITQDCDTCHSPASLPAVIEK
Briefly: co-immunoprecipitation with anti-Myc antibody from transfected 293T cells.

B1: Myc tagged TSG101 truncated at position 140 (other)
chain: MAVSESQLKKMVSKYKYRDLTVRETVNVITLYKDLKPVLDSYVFNDGSSRELMNLTGTIPVPYRGNTYNIPICLWLLDTYPYNPPICFVKPTSSMTIKTGKHVDANGKIYLPYLHEWKHPQSDLLGLIQVMIVVFGDEPP
B1: the binding result is recorded as “no binding”.
